Measured values as given in paper PMC3154423.

How the values were obtained:
Assay in all cases: ITC
[1] = target: Jun-Jun bZIP R272A (human, UniProt P05412 252-315, R272A)
[2] = target: Jun bZIP R272A;Fos bZIP K148A (human;human, UniProt P05412;P01100 252-315;137-200, R272A|K148A)
[3] = target: Jun bZIP R272A;Fos bZIP R146A (human;human, UniProt P05412;P01100 252-315;137-200, R272A|R146A)
[4] = target: Jun bZIP K258A;Fos bZIP R158A (human;human, UniProt P05412;P01100 252-315;137-200, K258A|R158A)
[5] = target: Jun bZIP R270A;Fos bZIP R158A (human;human, UniProt P05412;P01100 252-315;137-200, R270A|R158A)
[6] = target: Jun bZIP R272A;Fos bZIP R143A (human;human, UniProt P05412;P01100 252-315;137-200, R272A|R143A)
[7] = target: Jun bZIP R261A;Fos bZIP R143A (human;human, UniProt P05412;P01100 252-315;137-200, R261A|R143A)
[8] = target: Jun bZIP R263A;Fos bZIP R158A (human;human, UniProt P05412;P01100 252-315;137-200, R263A|R158A)
[9] = target: Jun bZIP R259A;Fos bZIP R155A (human;human, UniProt P05412;P01100 252-315;137-200, R259A|R155A)
[10] = target: Jun bZIP K258A;Fos bZIP R146A (human;human, UniProt P05412;P01100 252-315;137-200, K258A|R146A)
[11] = target: Jun bZIP R261A;Fos bZIP R146A (human;human, UniProt P05412;P01100 252-315;137-200, R261A|R146A)
[12] = target: Jun bZIP R259A;Fos bZIP R158A (human;human, UniProt P05412;P01100 252-315;137-200, R259A|R158A)
[13] = target: Jun bZIP R270A;Fos bZIP R144A (human;human, UniProt P05412;P01100 252-315;137-200, R270A|R144A)
[14] = target: Jun bZIP R263A;Fos bZIP R157A (human;human, UniProt P05412;P01100 252-315;137-200, R263A|R157A)
[15] = target: Jun bZIP R270A;Fos bZIP K153A (human;human, UniProt P05412;P01100 252-315;137-200, R270A|K153A)
[16] = target: Jun bZIP R259A;Fos bZIP R143A (human;human, UniProt P05412;P01100 252-315;137-200, R259A|R143A)
[17] = target: Jun-Jun bZIP R263A (human, UniProt P05412 252-315, R263A)
Sequence of Jun-Jun bZIP R263A (P05412 252-315 R263A): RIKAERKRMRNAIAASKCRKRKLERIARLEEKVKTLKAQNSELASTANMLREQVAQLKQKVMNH

Sequence of Jun bZIP R272A;Fos bZIP R143A (P05412 252-315 R272A, chain 1 of 2): as the sequence (P05412 252-315 R263A) above, with A12R, R21A counted along it
Sequence of Jun bZIP R272A;Fos bZIP R143A (P01100 137-200 R143A, chain 2 of 2): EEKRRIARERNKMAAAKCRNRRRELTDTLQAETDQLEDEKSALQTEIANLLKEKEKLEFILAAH
Sequence of Jun-Jun bZIP R272A (P05412 252-315 R272A): as the sequence (P05412 252-315 R263A) above, with A12R, R21A counted along it
Sequence of Jun bZIP R272A;Fos bZIP R146A (P05412 252-315 R272A, chain 1 of 2): as the sequence (P05412 252-315 R263A) above, with A12R, R21A counted along it
Sequence of Jun bZIP R272A;Fos bZIP R146A (P01100 137-200 R146A, chain 2 of 2): as the sequence (P01100 137-200 R143A, chain 2 of 2) above, with A7R, R10A counted along it
Sequence of Jun bZIP R272A;Fos bZIP K148A (P05412 252-315 R272A, chain 1 of 2): as the sequence (P05412 252-315 R263A) above, with A12R, R21A counted along it
Sequence of Jun bZIP R272A;Fos bZIP K148A (P01100 137-200 K148A, chain 2 of 2): as the sequence (P01100 137-200 R143A, chain 2 of 2) above, with A7R, K12A counted along it
Sequence of Jun bZIP K258A;Fos bZIP R146A (P05412 252-315 K258A, chain 1 of 2): as the sequence (P05412 252-315 R263A) above, with K7A, A12R counted along it
Sequence of Jun bZIP K258A;Fos bZIP R146A (P01100 137-200 R146A, chain 2 of 2): as the sequence (P01100 137-200 R143A, chain 2 of 2) above, with A7R, R10A counted along it
Sequence of Jun bZIP K258A;Fos bZIP R158A (P05412 252-315 K258A, chain 1 of 2): as the sequence (P05412 252-315 R263A) above, with K7A, A12R counted along it
Sequence of Jun bZIP K258A;Fos bZIP R158A (P01100 137-200 R158A, chain 2 of 2): as the sequence (P01100 137-200 R143A, chain 2 of 2) above, with A7R, R22A counted along it
Sequence of Jun bZIP R261A;Fos bZIP R143A (P05412 252-315 R261A, chain 1 of 2): as the sequence (P05412 252-315 R263A) above, with R10A, A12R counted along it
Sequence of Jun bZIP R261A;Fos bZIP R143A (P01100 137-200 R143A, chain 2 of 2): as the sequence (P01100 137-200 R143A, chain 2 of 2) above
Sequence of Jun bZIP R261A;Fos bZIP R146A (P05412 252-315 R261A, chain 1 of 2): as the sequence (P05412 252-315 R263A) above, with R10A, A12R counted along it
Sequence of Jun bZIP R261A;Fos bZIP R146A (P01100 137-200 R146A, chain 2 of 2): as the sequence (P01100 137-200 R143A, chain 2 of 2) above, with A7R, R10A counted along it
Sequence of Jun bZIP R263A;Fos bZIP R158A (P05412 252-315 R263A, chain 1 of 2): as the sequence (P05412 252-315 R263A) above
Sequence of Jun bZIP R263A;Fos bZIP R158A (P01100 137-200 R158A, chain 2 of 2): as the sequence (P01100 137-200 R143A, chain 2 of 2) above, with A7R, R22A counted along it
Sequence of Jun bZIP R263A;Fos bZIP R157A (P05412 252-315 R263A, chain 1 of 2): as the sequence (P05412 252-315 R263A) above
Sequence of Jun bZIP R263A;Fos bZIP R157A (P01100 137-200 R157A, chain 2 of 2): as the sequence (P01100 137-200 R143A, chain 2 of 2) above, with A7R, R21A counted along it
Sequence of Jun bZIP R270A;Fos bZIP R144A (P05412 252-315 R270A, chain 1 of 2): as the sequence (P05412 252-315 R263A) above, with A12R, R19A counted along it
Sequence of Jun bZIP R270A;Fos bZIP R144A (P01100 137-200 R144A, chain 2 of 2): as the sequence (P01100 137-200 R143A, chain 2 of 2) above, with A7R, R8A counted along it
Sequence of Jun bZIP R270A;Fos bZIP K153A (P05412 252-315 R270A, chain 1 of 2): as the sequence (P05412 252-315 R263A) above, with A12R, R19A counted along it
Sequence of Jun bZIP R270A;Fos bZIP K153A (P01100 137-200 K153A, chain 2 of 2): as the sequence (P01100 137-200 R143A, chain 2 of 2) above, with A7R, K17A counted along it
Sequence of Jun bZIP R270A;Fos bZIP R158A (P05412 252-315 R270A, chain 1 of 2): as the sequence (P05412 252-315 R263A) above, with A12R, R19A counted along it
Sequence of Jun bZIP R270A;Fos bZIP R158A (P01100 137-200 R158A, chain 2 of 2): as the sequence (P01100 137-200 R143A, chain 2 of 2) above, with A7R, R22A counted along it
Sequence of Jun bZIP R259A;Fos bZIP R155A (P05412 252-315 R259A, chain 1 of 2): as the sequence (P05412 252-315 R263A) above, with R8A, A12R counted along it
Sequence of Jun bZIP R259A;Fos bZIP R155A (P01100 137-200 R155A, chain 2 of 2): as the sequence (P01100 137-200 R143A, chain 2 of 2) above, with A7R, R19A counted along it
Sequence of Jun bZIP R259A;Fos bZIP R143A (P05412 252-315 R259A, chain 1 of 2): as the sequence (P05412 252-315 R263A) above, with R8A, A12R counted along it
Sequence of Jun bZIP R259A;Fos bZIP R143A (P01100 137-200 R143A, chain 2 of 2): as the sequence (P01100 137-200 R143A, chain 2 of 2) above
Sequence of Jun bZIP R259A;Fos bZIP R158A (P05412 252-315 R259A, chain 1 of 2): as the sequence (P05412 252-315 R263A) above, with R8A, A12R counted along it
Sequence of Jun bZIP R259A;Fos bZIP R158A (P01100 137-200 R158A, chain 2 of 2): as the sequence (P01100 137-200 R143A, chain 2 of 2) above, with A7R, R22A counted along it

B1: TRE duplex 15-mer (dsDNA)
DNA 1: CGCGTGACTCACCCC
DNA 2: GGGGTGAGTCACGCG
Binder B1 has a Kd [1] of 0.49 ± 0.04 µM, a Kd [2] of 0.71 ± 0.02 µM and a Kd [3] of 0.75 ± 0.1 µM. For the same binder, the Kd [4] was 0.96 ± 0.06 µM, the Kd [5] was 1.54 ± 0.05 µM and the Kd [6] was 0.91 ± 0.07 µM. The Kd [7] was 1.03 ± 0.05 µM, the Kd [8] was 1.12 ± 0.07 µM and the Kd [9] was 5.75 ± 0.09 µM. For the same binder, the Kd [10] was 0.66 ± 0.01 µM, the Kd [11] was 1.03 ± 0.02 µM and the Kd [12] was 2.16 ± 0.13 µM. It also gave a Kd [13] of 6.7 ± 0.41 µM, a Kd [14] of 1.74 ± 0.03 µM and a Kd [15] of 1.61 ± 0.15 µM. It also gave a Kd [16] of 3.49 ± 0.14 µM and a Kd [17] of 2.14 ± 0.1 µM.
